Data published in IntAct's records for PubMed 18342605.

B1: RNA end formation protein 2 (Saccharomyces cerevisiae), P42073 (parent)
chain: MSAPVPQLVNISHALQASTIQQIRLDMVDFNKDCKLSSIQLARIDKYIDSLQAALNQFTKDNLHIERKEKNVTEADIQLYSGLKSMYLDYLNQLIKLKHEKQHHSTPPIANDVSLDFFVNQLPKFSPEERKNYIDNLILNKNSHNRLSKMDGLVDAVINLCVLDTSVAENVRSYMKLLDTLGFQKGSNSTGTKANLKKKLASSKAKIKDSEKEKEKEKDKSKVKMKTKLKPSPLLNNDDKNSSPSPTASTSSMKKLKSGLFNKNEAKSTESLPTSSKKKLSFSKYLNKDDADMTKLGTKRSIDVDFKVNPEASTVASNIISSSTSGSSTTTVATPASSEEPLKKKTKISVQDSNVQSILRNGKPKKARISSIKFLDDSQLIKVYGDDLPNQGLQVSPTQLKKILKPFKEGEPKEIILFEDMSIKLKPLDLMFLKNTNSDDYMDISETKGGPIHCETRTPLIYRKNFNHFNPDLNKRPPREPIEFDLNGNTNSTPTIAKAFGKNSLLLRKDRGGLPYKHVPIVKRNKYPPRPVH
B2: Serine/threonine-protein phosphatase PP1-2 (Saccharomyces cerevisiae), P32598 (parent)
chain: MDSQPVDVDNIIDRLLEVRGSKPGQQVDLEENEIRYLCSKARSIFIKQPILLELEAPIKICGDIHGQYYDLLRLFEYGGFPPESNYLFLGDYVDRGKQSLETICLLLAYKIKYPENFFILRGNHECASINRIYGFYDECKRRYNIKLWKTFTDCFNCLPIAAIIDEKIFCMHGGLSPDLNSMEQIRRVMRPTDIPDVGLLCDLLWSDPDKDIVGWSENDRGVSFTFGPDVVNRFLQKQDMELICRAHQVVEDGYEFFSKRQLVTLFSAPNYCGEFDNAGAMMSVDESLLCSFQILKPAQKSLPRQAGGRKKK
partner: B1 chain
B3: Serine/threonine-protein phosphatase PP1-2 (Saccharomyces cerevisiae), P32598 (parent)
chain: B2 chain
B4: Serine/threonine-protein phosphatase PP1-2 (Saccharomyces cerevisiae), P32598 (parent)
chain: B2 chain
partner: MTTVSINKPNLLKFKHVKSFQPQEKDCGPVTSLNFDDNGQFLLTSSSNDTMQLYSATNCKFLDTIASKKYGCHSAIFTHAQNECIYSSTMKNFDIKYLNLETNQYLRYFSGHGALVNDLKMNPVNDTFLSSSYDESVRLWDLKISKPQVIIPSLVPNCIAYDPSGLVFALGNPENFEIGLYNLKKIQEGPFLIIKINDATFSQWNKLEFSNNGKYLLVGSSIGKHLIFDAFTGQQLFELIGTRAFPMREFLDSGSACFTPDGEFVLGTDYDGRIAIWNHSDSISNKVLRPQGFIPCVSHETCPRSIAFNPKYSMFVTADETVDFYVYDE

Variants of: B1
Details: with pp12_yeast GLC7, P32598

effect of a mutation on the interaction	Variant
disrupting interaction strength	MSAPVPQLVNISHALQASTIQQIRLDMVDFNKDCKLSSIQLARIDKYIDSLQAALNQFTKDNLHIERKEKNVTEADIQLYSGLKSMYLDYLNQLIKLKHEKQHHSTPPIANDVSLDFFVNQLPKFSPEERKNYIDNLILNKNSHNRLSKMDGLVDAVINLCVLDTSVAENVRSYMKLLDTLGFQKGSNSTGTKANLKKKLASSKAKIKDSEKEKEKEKDKSKVKMKTKLKPSPLLNNDDKNSSPSPTASTSSMKKLKSGLFNKNEAKSTESLPTSSKKKLSFSKYLNKDDADMTKLGTKRSIDVDFKVNPEASTVASNIISSSTSGSSTTTVATPASSEEPLKKKTKISVQDSNVQSILRNGKPKKARISSIKALDDSQLIKVYGDDLPNQGLQVSPTQLKKILKPFKEGEPKEIILFEDMSIKLKPLDLMFLKNTNSDDYMDISETKGGPIHCETRTPLIYRKNFNHFNPDLNKRPPREPIEFDLNGNTNSTPTIAKAFGKNSLLLRKDRGGLPYKHVPIVKRNKYPPRPVH [F374A]

Variants of: B2
Details: with ref2_yeast REF2, P42073

effect of a mutation on the interaction	Variant
disrupting interaction strength	MDSQPVDVDNIIDRLLEVRGSKPGQQVDLEENEIRYLCSKARSIFIKQPILLELEAPIKICGDIHGQYYDLLRLFEYGGFPPESNYLFLGDYVDRGKQSLETICLLLAYKIKYPENFFILRGNHECASINRIYGFYDECKRRYNIKLWKTFTDCFNCLPIAAIIDEKIFCMHGGLSPDLNSMEQIRRVMRPTDIPDVGLLCDLLWSDPDKDIVGWSENDRGVSFTFGPDVVNRFLQKQDMELICRAHQVVEDGYEAFSKRQLVTLFSAPNYCGEFDNAGAMMSVDESLLCSAQILKPAQKSLPRQAGGRKKK [F256A;F292A]
disrupting interaction strength	MDSQPVDVDNIIDRLLEVRGSKPGQQVDLEENEIRYLCSKARSIFIKQPILLELEAPIKICGDIHGQYYDLLRLFEYGGFPPESNYLFLGDYVDRGKQSLETICLLLAYKIKYPENFFILRGNHECASINRIYGFYDECKRRYNIKLWKTFTDCFNCLPIAAIIDEKIFCMHGGLSPDLNSMEQIRRVMRPTDIPDVGLLCDLLWSDPDKDIVGWSENDRGVSFTFGPDVVNRFLQKQDMELICRAHQVVEDGYEAFSKRQLVTLFSAPNYCGEFDNAGAMMSVDESLLCSFQILKPAQKSLPRQAGGRKKK [F256A]
decreasing interaction strength	MDSQPVDVDNIIDRLLEVRGSKPGQQVDLEENEIRYLCSKARSIFIKQPILLELEAPIKICGDIHGQYYDLLRLFEYGGFPPESNYLFLGDYVDRGKQSLETICLLLAYKIKYPENFFILRGNHECASINRIYGFYDECKRRYNIKLWKTFTDCFNCLPIAAIIDEKIFCMHGGLSPDLNSMEQIRRVMRPTDIPDVGLLCDLLWSDPDKDIVGWSENDRGVSFTFGPDVVNRFLQKQDMELICRAHQVVEDGYEFFSKRQLVTLFSAPNYCGEFDNAGAMMSVDESLLCSAQILKPAQKSLPRQAGGRKKK [F292A]

Variants of: B3
Details: with sen1_yeast SEN1, Q00416
Chain of sen1_yeast SEN1, Q00416 (Q00416 whole entry): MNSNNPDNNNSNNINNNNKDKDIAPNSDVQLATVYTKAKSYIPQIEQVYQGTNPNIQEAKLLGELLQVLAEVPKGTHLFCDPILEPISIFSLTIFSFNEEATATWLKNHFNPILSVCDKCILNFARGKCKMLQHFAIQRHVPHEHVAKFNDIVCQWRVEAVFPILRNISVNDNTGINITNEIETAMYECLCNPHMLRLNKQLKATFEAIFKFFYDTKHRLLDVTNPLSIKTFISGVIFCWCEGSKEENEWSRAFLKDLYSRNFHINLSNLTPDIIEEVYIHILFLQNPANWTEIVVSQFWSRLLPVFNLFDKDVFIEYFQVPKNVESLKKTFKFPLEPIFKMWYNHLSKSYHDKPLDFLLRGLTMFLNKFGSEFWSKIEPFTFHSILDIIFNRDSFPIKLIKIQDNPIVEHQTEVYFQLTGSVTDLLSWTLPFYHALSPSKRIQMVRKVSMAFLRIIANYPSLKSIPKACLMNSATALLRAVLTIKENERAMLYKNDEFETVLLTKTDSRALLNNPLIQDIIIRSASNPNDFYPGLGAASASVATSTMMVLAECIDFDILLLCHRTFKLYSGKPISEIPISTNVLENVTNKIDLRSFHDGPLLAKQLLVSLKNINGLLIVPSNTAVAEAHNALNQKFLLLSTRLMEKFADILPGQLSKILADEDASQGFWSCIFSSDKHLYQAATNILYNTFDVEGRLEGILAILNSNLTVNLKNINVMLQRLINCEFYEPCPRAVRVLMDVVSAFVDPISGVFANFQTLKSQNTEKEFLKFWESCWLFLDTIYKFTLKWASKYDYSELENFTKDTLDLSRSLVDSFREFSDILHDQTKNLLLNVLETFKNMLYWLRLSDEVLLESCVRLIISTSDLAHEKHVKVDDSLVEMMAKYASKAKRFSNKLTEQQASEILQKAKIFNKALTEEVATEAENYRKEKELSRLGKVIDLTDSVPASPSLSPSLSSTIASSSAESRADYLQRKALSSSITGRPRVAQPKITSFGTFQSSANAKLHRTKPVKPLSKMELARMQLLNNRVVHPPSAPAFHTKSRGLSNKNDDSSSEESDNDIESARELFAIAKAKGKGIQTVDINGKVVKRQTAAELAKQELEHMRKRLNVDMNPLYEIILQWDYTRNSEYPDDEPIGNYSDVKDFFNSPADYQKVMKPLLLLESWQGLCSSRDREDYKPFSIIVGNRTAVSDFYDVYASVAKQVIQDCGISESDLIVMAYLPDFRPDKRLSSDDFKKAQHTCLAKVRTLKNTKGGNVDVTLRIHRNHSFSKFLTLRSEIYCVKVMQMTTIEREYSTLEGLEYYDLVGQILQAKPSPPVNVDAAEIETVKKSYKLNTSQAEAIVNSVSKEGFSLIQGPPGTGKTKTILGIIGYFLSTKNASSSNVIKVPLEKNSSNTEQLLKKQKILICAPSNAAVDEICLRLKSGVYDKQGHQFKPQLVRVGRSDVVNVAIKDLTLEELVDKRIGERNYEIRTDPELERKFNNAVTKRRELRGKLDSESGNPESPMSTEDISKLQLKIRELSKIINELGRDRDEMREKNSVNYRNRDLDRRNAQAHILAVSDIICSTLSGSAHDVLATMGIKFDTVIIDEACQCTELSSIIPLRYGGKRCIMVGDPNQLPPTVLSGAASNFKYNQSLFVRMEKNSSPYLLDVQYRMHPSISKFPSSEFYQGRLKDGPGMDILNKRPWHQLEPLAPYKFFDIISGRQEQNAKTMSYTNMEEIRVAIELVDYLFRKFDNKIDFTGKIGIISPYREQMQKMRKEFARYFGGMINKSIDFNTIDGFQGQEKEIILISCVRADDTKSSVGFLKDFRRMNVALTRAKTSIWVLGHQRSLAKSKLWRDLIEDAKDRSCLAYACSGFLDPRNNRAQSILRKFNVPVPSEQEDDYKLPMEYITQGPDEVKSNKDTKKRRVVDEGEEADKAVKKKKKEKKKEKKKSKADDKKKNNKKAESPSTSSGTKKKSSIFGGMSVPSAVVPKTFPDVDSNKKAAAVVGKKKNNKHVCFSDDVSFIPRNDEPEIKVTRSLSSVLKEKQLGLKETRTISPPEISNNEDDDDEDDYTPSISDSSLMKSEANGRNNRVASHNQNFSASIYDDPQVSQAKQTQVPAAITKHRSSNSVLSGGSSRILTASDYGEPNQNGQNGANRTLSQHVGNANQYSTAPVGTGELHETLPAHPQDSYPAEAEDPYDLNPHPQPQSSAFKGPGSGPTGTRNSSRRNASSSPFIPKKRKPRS

effect of a mutation on the interaction	Variant
decreasing interaction strength	MDSQPVDVDNIIDRLLEVRGSKPGQQVDLEENEIRYLCSKARSIFIKQPILLELEAPIKICGDIHGQYYDLLRLFEYGGFPPESNYLFLGDYVDRGKQSLETICLLLAYKIKYPENFFILRGNHECASINRIYGFYDECKRRYNIKLWKTFTDCFNCLPIAAIIDEKIFCMHGGLSPDLNSMEQIRRVMRPTDIPDVGLLCDLLWSDPDKDIVGWSENDRGVSFTFGPDVVNRFLQKQDMELICRAHQVVEDGYEFFSKRQLVTLFSAPNYCGEFDNAGAMMSVDESLLCSAQILKPAQKSLPRQAGGRKKK [F292A]
disrupting interaction strength	MDSQPVDVDNIIDRLLEVRGSKPGQQVDLEENEIRYLCSKARSIFIKQPILLELEAPIKICGDIHGQYYDLLRLFEYGGFPPESNYLFLGDYVDRGKQSLETICLLLAYKIKYPENFFILRGNHECASINRIYGFYDECKRRYNIKLWKTFTDCFNCLPIAAIIDEKIFCMHGGLSPDLNSMEQIRRVMRPTDIPDVGLLCDLLWSDPDKDIVGWSENDRGVSFTFGPDVVNRFLQKQDMELICRAHQVVEDGYEAFSKRQLVTLFSAPNYCGEFDNAGAMMSVDESLLCSFQILKPAQKSLPRQAGGRKKK [F256A]
disrupting interaction strength	MDSQPVDVDNIIDRLLEVRGSKPGQQVDLEENEIRYLCSKARSIFIKQPILLELEAPIKICGDIHGQYYDLLRLFEYGGFPPESNYLFLGDYVDRGKQSLETICLLLAYKIKYPENFFILRGNHECASINRIYGFYDECKRRYNIKLWKTFTDCFNCLPIAAIIDEKIFCMHGGLSPDLNSMEQIRRVMRPTDIPDVGLLCDLLWSDPDKDIVGWSENDRGVSFTFGPDVVNRFLQKQDMELICRAHQVVEDGYEAFSKRQLVTLFSAPNYCGEFDNAGAMMSVDESLLCSAQILKPAQKSLPRQAGGRKKK [F256A;F292A]

Variants of: B4
Details: with swd2_yeast SWD2, P36104

effect of a mutation on the interaction	Variant
decreasing interaction strength	MDSQPVDVDNIIDRLLEVRGSKPGQQVDLEENEIRYLCSKARSIFIKQPILLELEAPIKICGDIHGQYYDLLRLFEYGGFPPESNYLFLGDYVDRGKQSLETICLLLAYKIKYPENFFILRGNHECASINRIYGFYDECKRRYNIKLWKTFTDCFNCLPIAAIIDEKIFCMHGGLSPDLNSMEQIRRVMRPTDIPDVGLLCDLLWSDPDKDIVGWSENDRGVSFTFGPDVVNRFLQKQDMELICRAHQVVEDGYEFFSKRQLVTLFSAPNYCGEFDNAGAMMSVDESLLCSAQILKPAQKSLPRQAGGRKKK [F292A]
disrupting interaction strength	MDSQPVDVDNIIDRLLEVRGSKPGQQVDLEENEIRYLCSKARSIFIKQPILLELEAPIKICGDIHGQYYDLLRLFEYGGFPPESNYLFLGDYVDRGKQSLETICLLLAYKIKYPENFFILRGNHECASINRIYGFYDECKRRYNIKLWKTFTDCFNCLPIAAIIDEKIFCMHGGLSPDLNSMEQIRRVMRPTDIPDVGLLCDLLWSDPDKDIVGWSENDRGVSFTFGPDVVNRFLQKQDMELICRAHQVVEDGYEAFSKRQLVTLFSAPNYCGEFDNAGAMMSVDESLLCSFQILKPAQKSLPRQAGGRKKK [F256A]
disrupting interaction strength	MDSQPVDVDNIIDRLLEVRGSKPGQQVDLEENEIRYLCSKARSIFIKQPILLELEAPIKICGDIHGQYYDLLRLFEYGGFPPESNYLFLGDYVDRGKQSLETICLLLAYKIKYPENFFILRGNHECASINRIYGFYDECKRRYNIKLWKTFTDCFNCLPIAAIIDEKIFCMHGGLSPDLNSMEQIRRVMRPTDIPDVGLLCDLLWSDPDKDIVGWSENDRGVSFTFGPDVVNRFLQKQDMELICRAHQVVEDGYEAFSKRQLVTLFSAPNYCGEFDNAGAMMSVDESLLCSAQILKPAQKSLPRQAGGRKKK [F256A;F292A]
